{
  "source": "patent US10154957B2",
  "about": "“Microneedle device having a peptide therapeutic agent and an amino acid and methods of making and using the same” (3M INNOVATIVE PROPERTIES COMPANY, priority 2011, dated 2018)",
  "key": {"[1]": {"experiment": "Stability of insulin in coating on flood-coated microneedle arrays stored at 40° C./96% RH (HPLC)", "format": "physicochemical", "conditions": "insulin 5 mg/mL in 0.1 N acetic acid", "procedure": "The protein or polypeptide content in the formulation coated on the microneedle arrays was determined using an Agilent 1100 HPLC system (Agilent Technologies, Wilmington, Del.) equipped with a binary pump, well-plated thermostated autosampler, thermostated column compartment, and a diode array UV detector. A Zorbax 300SB-C8 column (Agilent Technologies, Wilmington, Del.) having a 5 μm particle size and 2.1×150 mm inner diameter was used for the separations. The column was maintained at 50° C. The mobile phase consisted of two eluents. Eluent A was 0.1% TFA (trifluoroacetic acid) in water and eluent B was 0.1% TFA in acetonitrile (Spectrum Chemical, New Brunswick, N.J.). A linear gradient from 80/20 to 50/50 (A/B) was applied over 30 minutes. The flow rate was 0.4 mL/minute and the UV detection wavelength was set at 214 nm. The total run time was 34 minutes and the sample injection volume was 15 μL.\nThe pH of the sample formulation was 3.0-3.5. […] The pH of the control formulation was 3.0-3.5. Microneedle arrays were coated with either the sample or the control formulation. The coating was applied by dropwise addition of 50 μL of the formulation to the portion of the array defined by the octagon shaped pattern of microneedles. The flood coated arrays (both sample and control formulation coated) were dried in an oven at 35° C. for about 15 hours.\nAfter drying, the coated arrays were placed in a storage chamber that was maintained at 40° C. and 96% relative humidity (RH). […] At the designated time point, an array was taken from the chamber and washed with 0.1 N acetic acid (1 mL) to remove the coating from the array. […] The arrays used as reference standards were stored in a refrigerator at about 4° C. and analyzed within one day of being prepared.\nThe same procedure as described in Example 5 was used with the exception that the sample formulation contained 12 mg/mL of L-arginine hydrochloride, instead of L-histidine monohydrochloride. The pH of the sample formulation was 3.0-3.5."}, "[2]": {"experiment": "Stability of insulin in coating on flood-coated microneedle arrays stored at 40° C./96% RH (HPLC)", "format": "physicochemical", "conditions": "Amino Acid L-Histidine (His-HCl 12 mg/mL), insulin 5 mg/mL in 0.1 N acetic acid"}},
  "data": [
    {"substance": "Insulin", "values": [
      {"measurement": "Percent of Initial Insulin Content in the Coating", "setting": "[1]; Amino Acid L-Arginine (Arg-HCl 12 mg/mL), Day 1 at 40° C./96% RH", "value": 75.4, "unit": "%"},
      {"measurement": "Percent of Initial Insulin Content in the Coating", "setting": "[1]; Amino Acid L-Arginine (Arg-HCl 12 mg/mL), Day 3 at 40° C./96% RH", "value": 45.9, "unit": "%"},
      {"measurement": "Percent of Initial Insulin Content in the Coating", "setting": "[1]; Amino Acid L-Arginine (Arg-HCl 12 mg/mL), Day 7 at 40° C./96% RH", "value": 27.1, "unit": "%"},
      {"measurement": "Percent of Initial Insulin Content in the Coating", "setting": "[1]; Amino Acid L-Arginine (Arg-HCl 12 mg/mL), Initial", "value": 100, "unit": "%"},
      {"measurement": "Percent of Initial Insulin Content in the Coating", "setting": "[1]; Amino Acid None (control), Day 3 at 40° C./96% RH", "value": 0, "unit": "%"},
      {"measurement": "Percent of Initial Insulin Content in the Coating", "setting": "[1]; Amino Acid None (control), Day 7 at 40° C./96% RH", "value": 0, "unit": "%"},
      {"measurement": "Percent of Initial Insulin Content in the Coating", "setting": "[1]; Amino Acid None (control), Day 14 at 40° C./96% RH", "value": 0, "unit": "%"},
      {"measurement": "Percent of Initial Insulin Content in the Coating", "setting": "[1]; Amino Acid None (control), Initial", "value": 100, "unit": "%"},
      {"measurement": "Percent of Initial Insulin Content in the Coating", "setting": "[2]; Day 1 at 40° C./96% RH", "value": 95.3, "unit": "%"},
      {"measurement": "Percent of Initial Insulin Content in the Coating", "setting": "[2]; Day 3 at 40° C./96% RH", "value": 93.5, "unit": "%"},
      {"measurement": "Percent of Initial Insulin Content in the Coating", "setting": "[2]; Day 7 at 40° C./96% RH", "value": 79.2, "unit": "%"},
      {"measurement": "Percent of Initial Insulin Content in the Coating", "setting": "[2]; Day 14 at 40° C./96% RH", "value": 34.9, "unit": "%"},
      {"measurement": "Percent of Initial Insulin Content in the Coating", "setting": "[2]; Initial", "value": 100, "unit": "%"}
    ]}
  ]
}
